# B1: hnRNPA2 mutant core segment GNYNVF (286-291, D290V) (peptide)
# peptide: GNYNVF
# notes: hexamer segment 286-291 of human hnRNPA2 LCD with the disease variant D290V (multisystem proteinopathy); numbers count on the 341-residue hnRNPA2 (isoform A2); also called mutant segment; disease-causing mutant core segment
# B2: mCherry-hnRNPA2-LCD fusion protein (domain or fragment, human, UniProt P22626-2 181-341, looked up)
# chain: MQEVQSSRSGRGGNFGFGDSRGGGGNFGPGPGSNFRGGSDGYGSGRGFGDGYNGYGGGPGGGNFGGSPGYGGGRGGYGGGGPGYGNQGGGYGGGYDNYGGGNYGSGNYNDFGNYNQQPSNYGPMKSGNFGGSRNMGGPYGGGNYGPGGSGGSGGYGGRSRY
# notes: hnRNPA2 C-terminal low-complexity domain (LCD), human, residues 181-341 of the 341-residue protein (161 residues); printed length 341 = isoform A2 of HNRNPA2B1; Only Gly263-Tyr319 is ordered in the fibril core; also called mC-hnRNPA2-LCD; mCh-hnRNPA2-LCD; source: E. coli BL21(DE3), purified (HisTrap HP column, in 2 M guanidine HCl), dialysed and concentrated; not shown: mCherry, N-terminal, kept
# How the values were obtained:
# [1] = molecular target: the molecule itself; test: crystal structure; hanging-drop vapour diffusion; segment 9.69 mg ml^-1 in water with 31 mM lithium hydroxide; reservoir 0.15 M ammonium acetate, 35% MPD, 0.1 M Bis-Tris pH 5.5
# [2] = molecular target: the molecule itself; test: X-ray fibre diffraction; mC-hnRNPA2-LCD hydrogel (~60 mg ml^-1, 4 °C) air-dried between two capillary glass rods; 100 K
Protein,binding result [1],binding result [2]
B1,binds,
B2,,binds

# — publication PMC7427792, “CryoEM structure of the low-complexity domain of hnRNPA2 and its conversion to pathogenic amyloid” (Nature Communications, 2020)
